# According to the RNAGym collection of RNA variant scans (doi:10.1073/pnas.2313332121):
# B1: TPR t1 (parent)
# chain: GACCAAUCUGCCCUCAGAGCUCGAGAACAUCUUCGGAUGCAGAGGAGGCAGGCUUCGGUGGCGCGAUAGCGCCAACGUCCUCAACCUCCAAUGCAUCCCACCACAUGAUGAUGCCUGAAGAGCCUUGGUUUUUUG
# Variants of: B1
# Assay: polymerase ribozyme fitness, log enrichment relative to wild type (log ratio); higher = more active; in vitro selection for triplet polymerase activity
# In short: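 Fitness is a logarithmic measure of how a genotype enriched relative to the wild type, with replicate averages weighted by inverse variance. The logarithm uses base 2, and enrichment came from Illumina sequencing of input and output libraries. Those libraries were PCR-built, transcribed mutants of each subunit of a heterodimeric triplet polymerase ribozyme, passed through one triplicate in vitro selection round that included frozen incubation at −7 °C, gel excision of extended constructs and streptavidin-bead capture. Genotypes were kept only if they had ≥10 input reads and ≥1 read per output.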
row,Variant,polymerase ribozyme fitness (log ratio)
1,GACCAAUCUGCCCUCAGAGCUCGAGAACAUCUUCGGAUGCAGAGGAGGCAGGCUUCGGUGGCGCGGUAGCGCCAAAGUCCUCAACCUCCAAUGCAUCCCACCACAUGAUGAUGCCUGAAGAGCCUUGGUUUUUUG [A66G C76A],-1.89
2,GACCAAUCUGGCCUCAGUGCUCGAGAACAUCUUCGGAUGCAGAGGAGGCAGGCUUCGGUGGCGCGAUAGCGCCAACGUCCUCAACUUCCAAUGCAUCCCACCACAUGAUGAUGCCUGAAGAGCUUUGGUUUUUUG [C11G A18U C86U C124U],-0.586
3,GACCAAUCUGCCCUCAGAGCUCGAGAACAUCUUCGGAUGCAGAGGACGCAGGCUUCGGUGGCGCGAUAGCGCCAACGUCCUCAACCUCCAAUGCAUCCCACCACAUGAUUAUGCCUGAAGAGCCUUGGUUUUUUG [G47C G110U],-2.81
4,GACCAAUCUGCCCUCAGAGCUCGAGAACAUCUUCGGAUGCAGAGGAGGCAGGCAUCGGUGGCGCGAUAGCGCCAACGUCCUCAACUUCCAAUGCAUCCCACCACAUGAUGAUGCCUGAAGAGCCUUGGUUUUUUG [U54A C86U],0.24
5,GACCAAUCUGCCCUCAGAGCUCGAGAACAUCUUCGGUUGCAGAGGAGGCAGGCUUCGGUGGCGCGAUAGCGUCAACGUCCUCAACCUCCAAUGCAUCACACCACAUGAUGAUGCCUGAAGAGGCUUGGUUUUUUG [A37U C72U C98A C123G],-5.11
6,GACCAAUCUGCCCUCAGAGCUCGAGAACCUCUUCGGAUGCAGAGGAGGCAGGCUUCGGUGGCACGAUAGCGCCAACGUCCUCAACCUCCAAUGCAUCCCACCACAUGAUGAUGCCUGAAUAGCCUUGGUUUUUUG [A29C G63A G120U],-3.1
7,GAACAAUCUGCCCUCAGAGCUCGAGAACAUCUUCGGAUGCAGAGGAGGCAGGCUUCGGUGGCGCGAUAGCGCGAACGUCCUCAACCUCCAAUGCAUCCCACCACAUGAUGAUGCCUGAUGAGCCUUGGCUUUUUG [C3A C73G A119U U129C],-1.93
8,GACCAAUCUGCCCUCAGAGCUCGAGAACAUCUUCGGAUGCAGUGGAGGCAGGCUUCGGUGGCGCGAUAGCGCCAACGUCCUCAACCUGCAAUGCUUCCCACCACAUGAUGAUGCCUGAAGAGCCUUGGUUUUUUG [A43U C88G A95U],-3.19
9,GACCAAUCUGCCCUCAGAGCUCGAGAACAUCUUUGGAUGCAGAGGAGGCAGGCUUCGGUUGCGCGAUAGCGCCAACGUCCUCAACCUCCAAUGCAUCCCACCACAUGAUGAUGCCUGAAGAGCCUUGGUUUUUUG [C34U G60U],-3.24
10,GACCAAUCUGCCCUCAGAGCUCGAGAACAUCUCCGGAUGCAGAGGAGGCAGGCUUCGGUGGCGCGAUAGCGCCAACGUCCUCAACCUCCAAUGCAUCCCACCACAUGAUGAUGCCUGAAGCGCCUUGGUUUUUUG [U33C A121C],-2.95
11,GACUAAUCUGCCCUCAGAGCUUGAGAACAUCUUCGGAUGCAGAGGAGGCAGGCUUCGGUGGCGCGAUAGCGCCAACGUCCUCAACCUCCAAUGCAUCCCACCACAUGAUGAUGCCUGAAGAGCCUUGGUUUUUUG [C4U C22U],-4.42
12,GACCAACCUGCCCUCAAAGCUCGAGAACAUCUUCGGAUGCAGAGGAGGCAGGCUUCGGUGGCGCGAUAGCGCCAACGUCCUCAUCCUCCAAUGCAUCCCACCACAUGAUGAUGCCUGAAGAGCCUUGGUUUUUUG [U7C G17A A84U],-2.39
13,GGCCAAUCUGCCCUCAGAGGUCGAGAACAUCUUCGGAUGCAGAGGAGGCAGGCUUCGGUGGCGCGAUAGCCCCAACGUCCUCAACCUCCAAUGCAUCCCACCACAUGAUGAUCCCUGAAGAGCCUUGGUUUUUUG [A2G C20G G71C G113C],-3
14,GACCAAUCUGCCCUCAGAGCUCGAGAACAUCUUCGGAUGCAGAGGAGGCAGGGUUUGGUGGCGCGAUAGCGCCAACGUCCUCAACCUCCAAUGCAUCCCACCACAUGAUGAUGCCUAAAGAGCCUUGGUUUUUUG [C53G C56U G117A],-1.63
15,GACCAAUUUGCCCUCAGAGCUCGAGACCAUCUUCGGAUGCAGAGGAGGCAGGCUUCGGUGGCGCGAUAGCGUCAACGUCAUCAACCUCCAAUGCAUCCCACCACAUGAUGAUGCCUGAAGAGCCUUGGUUUUUUG [C8U A27C C72U C80A],-6.42
16,GACCCAUCUGCCCUCAGAGCUCGAGAACAUCUUCGGAUGCAGACGUGGCAGGCUUCGGUGGCGCGAUAGCGCCAACGUCCUCAACCUCCAAUGCAUCCCACCACACGAUGAUGCCUGAAGAGCCUUGGUUUUUUG [A5C G44C A46U U106C],-2.77
17,GACCAAUCUGCCCUCAGAGCUCGAGAACAUCUUCGGAUGCAGAGGAGACAGGCUUCGGUGGCGCGAUAGCGCCAACGUCCUCAACCUCCAAUGCAUCCCUUCACAUGAUGAUGCCUAAAGAGACUUGGUUUUUUG [G48A A100U C101U G117A C123A],-3.72
18,GACCAAUCUGCCCUCAGACCUCGAGAACAUCUUCGGGUGCAGAGGAGGCAGGCUUCGGUGGCGCGAUAUCGCCAACGUCCUCAACCUCCAAUGCAUCCCACCACAUGAUGAUGCCUGAAGAGCGUUGGUUUUUUG [G19C A37G G69U C124G],0.721
19,GACCAAUCUGCCCUCAGAGCUCGAGAACAUCUUCGGAUGCAGAGGAGGCAGGCUUCGGUGCCGCGAUAGCGCCAACGGCCUCAACCUCCAAUGCAUCCCACCACAUGAUGUUGCCUGAAGAGCCUUGGUUAUUUG [G61C U78G A111U U131A],-5.71
20,GACCAAUCUGCCCUCAGAGCUCGAGAACAUCUUCGGAUGCAGAGGAGGCCGGCUUCGGUGGCGCGAUAGCGCCAACGUCCUCAACCUCCAAUGCAUCCCAACACAUGAUGAUGCCUGAAGAGCCUUGGUUUUUUG [A50C C101A],-1.83
21,GACCAAUCUGCCCUCAGAGCUCGAGAACGUCUUCGGAUGCAGAGGAGGCAGGCUUCGGUGGCGCGAUAGCGCCAACGUCCUCAACCUCCAAUGCAUCCCACCACAUGAUGAUGCCUGAAGAGGCUUGGUUUUUUG [A29G C123G],0.246
